Measurements from patent US20110236427A1 (MEDIZINISCHE UNIVERSITAT INNSBRUCK, published 2011).

Key:
[1] = target: T1, endogenous PKCtheta from Jurkat T cell lysates (human, UniProt Q04759 1-706); test: GST pull down from Jurkat T cell lysates, immunoblot
T1 construct: Detected by immunoblot with an anti-PKCtheta antibody (Cell Signalling) after the GST pull down
Method: (§1) GST pull down assay: 1×10⁷ Jurkat T cells were lysed in 1 ml lysis buffer (25 mM MES pH6.5, 5 mM NaF, 1 mM Na₃VO₄, 2 mM EDTA, 150 mM NaCl, 0.5% TritonX-100, 50 μg/ml aprotinin and leupeptin). Lysates were precleared for 30 min at 4° C. Thereafter incubation with purified recombinant GST-NR2F6 fusion proteins for 3 h at 4° C., 5× washing in lysis buffer, SDS-PAGE under reducing conditions on Bis/Tris-buffered gels (Novex, San Diego, Calif.) was performed. Proteins were transferred onto a polyvinyl-difluoridon (PVDF) membrane (Millipore, Bedford, Mass.) by semi-dry blotting (90 mA, 80 min, 4° C.). […] Peroxidase-conjugated antibodies (Pierce, Rockford, Ill.) served as secondary reagent (1:5,000). For antigen detection enhanced chemiluminescence was used (Super Signal, Pierce, Rockford, Ill.).

[2] = target: T2, endogenous PKCalpha from Jurkat T cell lysates (human, UniProt P17252 2-672); test: as above
T2 construct: Detected by immunoblot with an anti-PKCalpha antibody (UBI) after the GST pull down; also called PKCα
Method: as §1

T1 sequence (Q04759 whole entry): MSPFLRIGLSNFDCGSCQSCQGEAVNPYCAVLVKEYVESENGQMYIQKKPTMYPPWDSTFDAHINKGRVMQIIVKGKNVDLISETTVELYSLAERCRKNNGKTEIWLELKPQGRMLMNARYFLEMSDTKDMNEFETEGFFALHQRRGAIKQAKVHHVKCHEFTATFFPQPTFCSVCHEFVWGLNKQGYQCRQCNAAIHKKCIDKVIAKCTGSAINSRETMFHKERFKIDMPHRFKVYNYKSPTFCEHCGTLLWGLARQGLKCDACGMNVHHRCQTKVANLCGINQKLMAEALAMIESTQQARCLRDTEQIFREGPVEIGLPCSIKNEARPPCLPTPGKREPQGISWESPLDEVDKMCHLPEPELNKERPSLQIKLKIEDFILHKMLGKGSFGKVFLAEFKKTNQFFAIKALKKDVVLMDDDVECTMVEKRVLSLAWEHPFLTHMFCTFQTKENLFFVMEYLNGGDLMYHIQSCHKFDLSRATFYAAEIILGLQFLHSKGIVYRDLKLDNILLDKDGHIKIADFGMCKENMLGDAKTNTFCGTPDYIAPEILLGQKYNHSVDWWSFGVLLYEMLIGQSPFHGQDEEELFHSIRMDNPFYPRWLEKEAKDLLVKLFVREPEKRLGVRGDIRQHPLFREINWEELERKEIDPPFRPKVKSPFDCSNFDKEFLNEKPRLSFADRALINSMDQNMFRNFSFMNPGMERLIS

- binding result [1]: binds
- binding result [2]: binds
B1: GST-NR2F6 fusion protein, full-length, wild-type (other)
chain: MAMVTGGWGGPGGDTNGVDKAGGYPRAAEDDSASPPGAASDAEPGDEERPGLQVDCVVCGDKSSGKHYGVFTCEGCKSFFKRSIRRNLSYTCRSNRDCQIDQHHRNQCQYCRLKKCFRVGMRKEAVQRGRIPHSLPGAVAASSGSPPGSALAAVASGGDLFPGQPVSELIAQLLRAEPYPAAAGRFGAGGGAAGAVLGIDNVCELAARLLFSTVEWARHAPFFPELPVADQVALLRLSWSELFVLNAAQAALPLHTAPLLAAAGLHAAPMAAERAVAFMDQVRAFQEQVDKLGRLQVDSAEYGCLKAIALFTPDACGLSDPAHVESLQEKAQVALTEYVRAQYPSQPQRFGRLLLRLPALRAVPASLISQLFFMRLVGKTPIETLIRDMLLSGSTFNWPYGSGQ
notes: Purified recombinant fusion protein, used as bait in the GST pull down from Jurkat T cell lysates and as substrate in the in vitro kinase assay; also called recombinant NR2F6; purified recombinant GST-NR2F6; not shown: GST tag; N-terminal position inferred from the name GST-NR2F6
